Experimental data as given in the Human Domainome abundance scans (Beltran et al. 2025).
± gives the uncertainty stated by the source.

B1: Zinc finger homeobox protein 4, residues 2086 to 2141; numbered along this chain, Q86UP3 (parent)
chain: RPRTRITDDQLKILRAYFDINNSPSEEQIQEMAEKSGLSQKVIKHWFRNTLFKERQ

Variants of: B1
Experiment: abundance fitness (aPCA) (normalised: wild type 0, dead -1); higher = more abundant; growth selection in yeast, the domain comes from the species named
Conditions: Homo sapiens

Variant | abundance fitness
RPRTRITDDQLKILRAYFDINNSPSLEQIQEMAEKSGLSQKVIKHWFRNTLFKERQ [E26L] | -0.015 ± 0.079
RPRTRITDDQLKILRIYFDINNSPSEEQIQEMAEKSGLSQKVIKHWFRNTLFKERQ [A16I] | -0.071 ± 0.11
RPRTRITDDQLKILRAYFDINNSPSEEQIQEMAEKSGLSQKVIKAWFRNTLFKERQ [H45A] | -0.018 ± 0.067
RPRTRITDDQLKILRAYFDINNSPSEEQIQEMAEKSGLSQKVIKHWLRNTLFKERQ [F47L] | -0.149 ± 0.077
RPRTRITDDQLKILRAYFDINNSPSEEQIQEMAEKSGLSQKIIKHWFRNTLFKERQ [V42I] | -0.057 ± 0.11
RPRTRITDDQLKILRAYFDILNSPSEEQIQEMAEKSGLSQKVIKHWFRNTLFKERQ [N21L] | -0.101 ± 0.091
RPRTRITDDQLKILRAYFDINNSPSEEQIQEMAEKSGLSQKVIKHFFRNTLFKERQ [W46F] | -0.237 ± 0.11
RPRTRITDDPLKILRAYFDINNSPSEEQIQEMAEKSGLSQKVIKHWFRNTLFKERQ [Q10P] | -0.819 ± 0.13
RPRTRITDDQLKIRRAYFDINNSPSEEQIQEMAEKSGLSQKVIKHWFRNTLFKERQ [L14R] | -0.949 ± 0.096
RPRTRITDDQLKILRAYFDINNSPSEEQIQEHAEKSGLSQKVIKHWFRNTLFKERQ [M32H] | -0.686 ± 0.14
RPRTRITDDQLKILRAYFDINNSPSEEQIQEMAEKSGLSQPVIKHWFRNTLFKERQ [K41P] | -0.307 ± 0.1
RPRTRITDDQLKILRAYFDINNSPSEEQIQEMAEKSGLSQKVIKHWFRNTLWKERQ [F52W] | -0.174 ± 0.31
RPRTRITDDQLKILRAYFDINNSPSEEQIQEMAEKSGDSQKVIKHWFRNTLFKERQ [L38D] | -0.765 ± 0.13
RPRTRITSDQLKILRAYFDINNSPSEEQIQEMAEKSGLSQKVIKHWFRNTLFKERQ [D8S] | 0.023 ± 0.081
RPRTRITDDQLKILRAAFDINNSPSEEQIQEMAEKSGLSQKVIKHWFRNTLFKERQ [Y17A] | -0.16 ± 0.091
RPNTRITDDQLKILRAYFDINNSPSEEQIQEMAEKSGLSQKVIKHWFRNTLFKERQ [R3N] | -0.033 ± 0.12
RPRTRITADQLKILRAYFDINNSPSEEQIQEMAEKSGLSQKVIKHWFRNTLFKERQ [D8A] | -0.051 ± 0.066
RPRTRITDDQAKILRAYFDINNSPSEEQIQEMAEKSGLSQKVIKHWFRNTLFKERQ [L11A] | -0.193 ± 0.069
RPRTRITDDQLKILRAYFFINNSPSEEQIQEMAEKSGLSQKVIKHWFRNTLFKERQ [D19F] | -0.196 ± 0.14
RPRTRITDDQLKILRAYFDINNSCSEEQIQEMAEKSGLSQKVIKHWFRNTLFKERQ [P24C] | -0.462 ± 0.12
RPRTRITDDQLKILRAYFDINNSPSEEQIQEMAEKSGLSQKVIKHWFNNTLFKERQ [R48N] | 0.125 ± 0.13
RPRTRITDDQLKILRAYFDINNSPSEEQIQEMAEKSGLSQKVIKHWFRNTTFKERQ [L51T] | -0.065 ± 0.12
RPRTRITDDQLKILRAYFDINNSPSEEQIQEMAEKSGLSQKVIKHWFRNTLFKEQQ [R55Q] | -0.028 ± 0.12
HPRTRITDDQLKILRAYFDINNSPSEEQIQEMAEKSGLSQKVIKHWFRNTLFKERQ [R1H] | -0.211 ± 0.25

Variant | abundance fitness
RPRTRITDDQLKILRAYFDINNSPSEEQIQEMAEKSGLSQKVIKHWFRNTLFKEHQ [R55H] | 0.256 ± 0.49
RPRTRITDDQLKILRAYFDINNSPSEEQIQEMAKKSGLSQKVIKHWFRNTLFKERQ [E34K] | -0.147 ± 0.14
RPRTRITDDQLKILRAYFDINNSPSEESIQEMAEKSGLSQKVIKHWFRNTLFKERQ [Q28S] | -0.095 ± 0.077
RPRTRITDDQLKILRAYFDINNSPSEEQIQEMAEKSGLSQKVIKHWFRNTLFKEDQ [R55D] | -0.163 ± 0.14
RPRTRITDDQLKILRASFDINNSPSEEQIQEMAEKSGLSQKVIKHWFRNTLFKERQ [Y17S] | -0.227 ± 0.072
RPRTRITDDQLKILRAYFDINNSPSEEQIQEMAEKSGLSQKVIKHWFRNTLFKQRQ [E54Q] | -0.206 ± 0.1
RPRTRITDDQLKILRAYFDINNSFSEEQIQEMAEKSGLSQKVIKHWFRNTLFKERQ [P24F] | -0.538 ± 0.098
RPRTRITDDQLKILRAYFDINNSPSEEQIQEMAEKSGLSQKVIKHWRRNTLFKERQ [F47R] | -0.506 ± 0.072
RPRTRITDDQLKIARAYFDINNSPSEEQIQEMAEKSGLSQKVIKHWFRNTLFKERQ [L14A] | -0.865 ± 0.12
RPRTRITDDQLKILRAYFDINNSPSENQIQEMAEKSGLSQKVIKHWFRNTLFKERQ [E27N] | 0.129 ± 0.38
RPRTRITDDQLKILRAYFDINNSPSEYQIQEMAEKSGLSQKVIKHWFRNTLFKERQ [E27Y] | -0.391 ± 0.29
RPRTRITDDQLKILRAYFDINNSPSEEQIQEKAEKSGLSQKVIKHWFRNTLFKERQ [M32K] | -0.923 ± 0.13
RPRTRITEDQLKILRAYFDINNSPSEEQIQEMAEKSGLSQKVIKHWFRNTLFKERQ [D8E] | 0.145 ± 0.083
RPRTRITDDQLKILRAYFDINNSPSEEQIQEMAEDSGLSQKVIKHWFRNTLFKERQ [K35D] | -0.375 ± 0.12
RPRTRITDDQLKILRAYFDINNSPSEEQIQEMAEKSGLYQKVIKHWFRNTLFKERQ [S39Y] | -0.14 ± 0.48
RPRTRITDDQLKILRAYFDINNSPSELQIQEMAEKSGLSQKVIKHWFRNTLFKERQ [E27L] | -0.194 ± 0.12
RPRTRITDDQLKILRAYFDINNSPSEEQIQEMAEKSGLSQKVIKHGFRNTLFKERQ [W46G] | -0.655 ± 0.072
RPRTRITDDQLKILRAYFDINNSWSEEQIQEMAEKSGLSQKVIKHWFRNTLFKERQ [P24W] | -0.435 ± 0.18
RPRTRITDDQLKILRAYFDINNSPSEEQIQEMAEKSGLSQKVIKHWFRNTLFKEGQ [R55G] | -0.038 ± 0.067
RPRTRITDDQLKILKAYFDINNSPSEEQIQEMAEKSGLSQKVIKHWFRNTLFKERQ [R15K] | 0.018 ± 0.093
RPRTRITDDQLKILRAYFDINNSPSEECIQEMAEKSGLSQKVIKHWFRNTLFKERQ [Q28C] | -0.244 ± 0.089
RPRTRITDDQLKILRAYFDINNSISEEQIQEMAEKSGLSQKVIKHWFRNTLFKERQ [P24I] | -0.337 ± 0.092
RPRTRITDDQLKILRAYFDINNSPSEEQIQEMAEKFGLSQKVIKHWFRNTLFKERQ [S36F] | -0.357 ± 0.1
